In paper PMC10445733 one finds response data, which are given here for four substances.

Common to all, as to assay: GST pulldown (co-precipitation), anti-HA western blot band quantification
For orientation: In western blotting, separated proteins are transferred to a membrane and probed.

Assay [1] concerns the target ESCRT-I complex: GST–TSG101 (m6) + Myc–VPS28 + HA–VPS37D (m12). Particulars: input 1%, value = UMAD1 pulldown band intensity / input band intensity, parent: 0.3.
Assay [2] deals with ESCRT-I complex: GST–TSG101 (m6) + Myc–VPS28 + HA–VPS37C (m11). As to conditions: input 1%, value = UMAD1 pulldown band intensity / input band intensity, parent: 2.1.
Assay [3] has as its target ESCRT-I complex: GST–TSG101 (m6) + Myc–VPS28 + HA–VPS37B (m10). Particulars: input 1%, value = UMAD1 pulldown band intensity / input band intensity, parent: 2.4.

With HA–UMAD1 (from UniProt C9J7I0) Y125A, the response was determined as 0 in assay [1] (293T cells co-transfected with GST–TSG101, Myc–VPS28, HA–VPS37D and HA–UMAD1 M2); 0.6 in assay [2] (293T cells co-transfected with GST–TSG101, Myc–VPS28, HA–VPS37C and HA–UMAD1 M2); 0.4 in assay [3] (293T cells co-transfected with GST–TSG101, Myc–VPS28, HA–VPS37B and HA–UMAD1 M2).
As to HA–UMAD1 (from UniProt C9J7I0) F127A, the response stood at 0 in assay [1] (293T cells co-transfected with GST–TSG101, Myc–VPS28, HA–VPS37D and HA–UMAD1 M3); 1.2 in assay [2] (293T cells co-transfected with GST–TSG101, Myc–VPS28, HA–VPS37C and HA–UMAD1 M3); 1.2 in assay [3] (293T cells co-transfected with GST–TSG101, Myc–VPS28, HA–VPS37B and HA–UMAD1 M3).
As to HA–UMAD1 (from UniProt C9J7I0) E130A, the response was determined as 0 in assay [1] (293T cells co-transfected with GST–TSG101, Myc–VPS28, HA–VPS37D and HA–UMAD1 M4); 0.4 in assay [2] (293T cells co-transfected with GST–TSG101, Myc–VPS28, HA–VPS37C and HA–UMAD1 M4); 0.2 in assay [3] (293T cells co-transfected with GST–TSG101, Myc–VPS28, HA–VPS37B and HA–UMAD1 M4).
Take “HA–UMAD1 (from UniProt C9J7I0) V89A; P90A; F91A”: the response came out at 0 in assay [1] (293T cells co-transfected with GST–TSG101, Myc–VPS28, HA–VPS37D and HA–UMAD1 M1); 0 in assay [2] (293T cells co-transfected with GST–TSG101, Myc–VPS28, HA–VPS37C and HA–UMAD1 M1); 0 in assay [3] (293T cells co-transfected with GST–TSG101, Myc–VPS28, HA–VPS37B and HA–UMAD1 M1).
